Measurements reported in paper PMC3882260.

Biological target: Flag-NEO1 (UniProt Q92859)
Assay: immunostaining of cells or tissue; plate-based cell binding in 384-well plates: transfected COS-7 cells, blocked with PBS 1% BSA, CBLN4-Fc for 1 h on ice, fixed, detected with Alexa Fluor-488 anti-human IgG; candidate screen, titration series and DCC domain mapping

Sequence of Flag-NEO1 (Q92859 34-1461): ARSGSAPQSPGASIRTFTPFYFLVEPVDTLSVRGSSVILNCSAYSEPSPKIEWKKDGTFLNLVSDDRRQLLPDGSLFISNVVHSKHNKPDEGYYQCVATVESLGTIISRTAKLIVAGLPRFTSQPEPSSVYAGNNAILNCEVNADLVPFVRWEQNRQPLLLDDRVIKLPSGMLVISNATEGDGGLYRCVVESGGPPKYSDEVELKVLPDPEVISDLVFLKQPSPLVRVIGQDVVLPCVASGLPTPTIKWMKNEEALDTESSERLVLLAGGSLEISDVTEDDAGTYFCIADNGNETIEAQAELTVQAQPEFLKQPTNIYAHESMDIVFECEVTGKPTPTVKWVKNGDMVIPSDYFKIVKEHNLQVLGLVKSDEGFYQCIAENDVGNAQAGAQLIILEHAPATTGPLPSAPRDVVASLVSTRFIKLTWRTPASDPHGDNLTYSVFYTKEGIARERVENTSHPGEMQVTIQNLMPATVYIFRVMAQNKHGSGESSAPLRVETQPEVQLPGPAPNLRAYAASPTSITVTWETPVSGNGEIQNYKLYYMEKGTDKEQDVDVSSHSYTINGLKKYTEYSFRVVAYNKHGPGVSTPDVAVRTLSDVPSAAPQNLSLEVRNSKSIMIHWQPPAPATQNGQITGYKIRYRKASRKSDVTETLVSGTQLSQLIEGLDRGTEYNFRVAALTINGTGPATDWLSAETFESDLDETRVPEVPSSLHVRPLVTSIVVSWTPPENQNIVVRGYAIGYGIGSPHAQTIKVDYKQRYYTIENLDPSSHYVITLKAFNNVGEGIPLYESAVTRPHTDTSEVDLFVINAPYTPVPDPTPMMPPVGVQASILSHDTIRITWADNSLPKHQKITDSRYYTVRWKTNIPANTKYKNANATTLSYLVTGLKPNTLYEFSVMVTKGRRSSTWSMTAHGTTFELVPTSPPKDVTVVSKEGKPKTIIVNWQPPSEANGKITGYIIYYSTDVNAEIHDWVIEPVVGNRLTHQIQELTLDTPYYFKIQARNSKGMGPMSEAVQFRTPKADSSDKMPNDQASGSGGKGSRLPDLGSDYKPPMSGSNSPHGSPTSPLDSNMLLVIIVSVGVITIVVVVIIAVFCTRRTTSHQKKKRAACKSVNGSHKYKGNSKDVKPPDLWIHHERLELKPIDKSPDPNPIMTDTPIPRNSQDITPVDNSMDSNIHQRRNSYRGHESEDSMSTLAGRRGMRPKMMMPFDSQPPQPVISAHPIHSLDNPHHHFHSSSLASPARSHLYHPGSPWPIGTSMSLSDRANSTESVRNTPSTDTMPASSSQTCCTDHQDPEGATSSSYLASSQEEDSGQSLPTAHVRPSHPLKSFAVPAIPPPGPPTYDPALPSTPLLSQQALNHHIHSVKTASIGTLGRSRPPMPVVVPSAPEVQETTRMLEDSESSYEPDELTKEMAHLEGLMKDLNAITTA

lowest CBLN4-Fc concentration at which binding was detected: 280 nM
Substance: human CBLN4 (M1-L201) with a C-terminal Fc tag (from UniProt Q9NTU7 28-201) (Fc fusion)
